{"source": "paper PMC10371975", "about": "“Potential of Y. lipolytica epoxide hydrolase for efficient production of enantiopure (R)-1,2-octanediol” (AMB Express, 2023)", "proteins": {"B1": {"name": "Yleh (Yarrowia lipolytica CLIB122) (protein)", "chain": "MTDSLSLGYYQLFHKYAVLGDKRWHYLDIPPTSPSPALLGSGKTLMLCHGFPDSWYGWRKQIPILRNLGYRLLVPSQMGYTRSEAPLYPTPEPNEKGEYPELGLEDGTDALKDLYCYTGKFYAQCMDELLTQLGIPTVTIIGHDYGAYLGPKLYLYFPHRVEAIATSCWHYVPALKKFFAIPDFIKLAPSLSYQAYLIGDASKDFATREGSEPFLRQVFGGEGWGGSDSSVHMTEPEFQNYMTEFATGGRFLSYMVSTYKARRLTFEIEKQDFLDKGRTPESMQVDVPYLHVGAEQDMAFRPPMIKNLRKYVKPGRLDEVWIDASHWLMFEKADEFNHELVKWLDKIHGSQSKL", "notes": "recombinant full-length 354-residue protein (ORF 1065 bp), pET28a+ vector, E. coli BL21AI host, Ni-NTA plus size exclusion purification (His tag implied); distinct from bifunctional Ylehd of the same yeast"}}, "substrate": "CCCCCCC1CO1", "test": "purified protein", "assay_type": "biochemical, Yarrowia lipolytica", "settings": "50 mM Tris-sulphate pH 8.0, 30 °C, 0.1-0.7 mM EO, 1 µg enzyme", "data": [{"protein": "B1", "values": [{"measurement": "Km", "value": "430 ± 17", "unit": "µM"}, {"measurement": "kcat", "value": "3.3458 ± 0.2163", "unit": "s⁻¹"}]}]}
